Data taken from patent US20060110356A1, “Ophthalmic drug delivery system using polymer micelle” (NANOCARRIER KABUSHIKI KAISHA, priority 2003, published 2006).

How the values were obtained:
[1] = system: choroidal neovascular (CNV) model; test: Intraocular transfer of fluorescent-labelled PIC micelle in rat CNV model (fluorescence microscopy of frozen sections); format: in vivo, BN rat; conditions: intravenous, 400 μL of 5 mg/mL in physiological saline
Procedure: A diblock copolymer having polyethylene glycol (PEG) as a hydrophilic polymer chain, and polyaspartic acid (P(Asp)) as an anionic polymer chain within one molecule was dispersed in water, and mixed with FITC-labelled polylysine (FITC-P(Lys)) to prepare a core-shell type PIC micelle solution (5 mg/mL) having a core of a polylon complex (PIC) consisting of P(Asp) and FITC-P(Lys), and a shell of PEG.
After generally anesthetizing a BN rat by intramuscular administration of 1 mL/kg of a mixture of a 5% ketamine hydrochloride injection and a 2% xylazine hydrochloride injection (7:1), eye drops of a 0.5% tropicamide-0.5% phenylephrine hydrochloride ophthalmic solution were administered to render mydriasis. Then, photocoagulation was carried out with a semiconductor laser photocoagulator. Photocoagulation was carried out on six scattering positions per one eye in a posterior portion of the ocular fundus while focusing on retinal deep layer (coagulation conditions: spot size 75 μm, output 200 mW, coagulation time 0.05 sec) such that irradiation of large retinal vessels was avoided. […]
Following administration, the eyeball was removed after a predetermined time, and a frozen tissue section was prepared. Thereafter, leakage of the fluorescence to the choroidal neovascular site was qualitatively observed by a fluorescence microscope.

skin = conditions: rat, in vivo, iv
Procedure: As a comparative control, Photofrin was administered under the same condition.
Four hours after the administration, a xenon lamp was irradiated on the shaved part (wavelength: 377-700 nm, power density: 30 mW/cm^2, irradiation area: 4 cm^2).

| Substance | toxicity (death of animal) [1] | photosensitive erethism on the skin (skin) |
| --- | --- | --- |
| FITC-labelled polylysine [FITC-P(Lys)] | the animal died one hour after the administration due to its toxicity | – |
| Photofrin | – | photosensitive erethism was found |
